Assay results reported in patent US20240010720A1 (IOMX THERAPEUTICS, published 2024).
Residue numbers refer to the chain shown, from its start. Where two headings read alike, the source gives them in different places.

Assays:
[1] = biological target: T1, human IGSF11 (VSIG3) on cells (human, UniProt Q5DX21 23-431); assay: FACS, HEK cells expressing IGSF11
T1 sequence: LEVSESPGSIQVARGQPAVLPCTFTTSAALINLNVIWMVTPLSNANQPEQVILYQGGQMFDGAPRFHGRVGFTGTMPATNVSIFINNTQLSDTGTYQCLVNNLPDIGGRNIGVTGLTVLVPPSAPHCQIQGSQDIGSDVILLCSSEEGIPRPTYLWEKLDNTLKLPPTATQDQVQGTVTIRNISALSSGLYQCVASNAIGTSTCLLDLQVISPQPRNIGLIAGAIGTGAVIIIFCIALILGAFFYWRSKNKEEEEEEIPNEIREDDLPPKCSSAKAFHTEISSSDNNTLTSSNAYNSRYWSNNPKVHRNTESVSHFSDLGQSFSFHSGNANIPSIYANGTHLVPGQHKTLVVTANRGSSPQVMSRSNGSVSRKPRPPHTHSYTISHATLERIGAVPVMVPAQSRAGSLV

[2] = biological target: T2, recombinant human IGSF11 (VSIG3) extracellular domain (ECD) (human, UniProt Q5DX21 23-241, biotinylated where captured on streptavidin); assay: BLI, IgG1
T2 construct: also called biotinylated recombinant ECD-IGSF11; IGSF11 (ECD domain)
T2 sequence: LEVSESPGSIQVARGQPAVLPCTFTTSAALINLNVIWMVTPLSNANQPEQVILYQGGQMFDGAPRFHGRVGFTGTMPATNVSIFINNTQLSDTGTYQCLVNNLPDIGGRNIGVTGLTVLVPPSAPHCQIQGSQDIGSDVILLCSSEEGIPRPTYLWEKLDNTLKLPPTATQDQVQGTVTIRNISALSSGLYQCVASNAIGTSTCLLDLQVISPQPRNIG

[3] = biological target: T1, human IGSF11 (VSIG3) on cells; assay: FACS, IgG1-format antibodies; CL-11 cells (C), a line that does not express IGSF11 (specificity control), scrambled control siRNA (SC)
[4] = biological target: T1, human IGSF11 (VSIG3) on cells; assay: FACS, IgG1-format antibodies; M579-A2-luc cells (M) treated with scrambled control siRNA (SC)
[5] = biological target: T3, IGSF11 ECD fused to murine-Fc (human; mouse, UniProt Q5DX21 23-241); assay: ELISA, IgG
T3 construct: also called Fc-fusion IGSF11 ECD; full-length ECD of IGSF11; not shown: murine Fc
T3 sequence: T2 sequence

[6] = biological target: T4, His-tagged extracellular domain (ECD) of human IGSF11 (VSIG3) (human, UniProt Q5DX21 23-241); assay: ELISA EC50 grade, IgG1
T4 construct: partly bought (SinoBiological 13094-H08H); also called IGSF11-HIS; HIS-IGSF11; not shown: HIS6 tag
T4 sequence: T2 sequence

[7] = biological target: T1, human IGSF11 (VSIG3) on cells; assay: FACS, IgG1-format antibodies; DMS 273 cells (D) treated with IGSF11 siRNA (KD)
[8] = biological target: T1, human IGSF11 (VSIG3) on cells; assay: FACS, IgG1-format antibodies; CL-11 cells (C), a line that does not express IGSF11 (specificity control), IGSF11 siRNA (KD)
[9] = biological target: T1, human IGSF11 (VSIG3) on cells; assay: FACS, IgG1-format antibodies; DMS 273 cells (D) treated with scrambled control siRNA (SC)
[10] = biological target: T1, human IGSF11 (VSIG3) on cells; assay: FACS, IgG1-format antibodies; M579-A2-luc cells (M) treated with IGSF11 siRNA (KD)
[11] = biological target: T2, recombinant human IGSF11 (VSIG3) …; assay: SPR, IgG1
murine IGSF11 on cells [12] = biological target: T5, murine IGSF11 on cells (mouse, UniProt P0C673 23-428); assay: FACS, CT26-IGSF11 cells, IgG
T5 construct: UniProt P0C673; also called MC38-IGSF11 (murine); CT26-IGSF11 (murine)
T5 sequence: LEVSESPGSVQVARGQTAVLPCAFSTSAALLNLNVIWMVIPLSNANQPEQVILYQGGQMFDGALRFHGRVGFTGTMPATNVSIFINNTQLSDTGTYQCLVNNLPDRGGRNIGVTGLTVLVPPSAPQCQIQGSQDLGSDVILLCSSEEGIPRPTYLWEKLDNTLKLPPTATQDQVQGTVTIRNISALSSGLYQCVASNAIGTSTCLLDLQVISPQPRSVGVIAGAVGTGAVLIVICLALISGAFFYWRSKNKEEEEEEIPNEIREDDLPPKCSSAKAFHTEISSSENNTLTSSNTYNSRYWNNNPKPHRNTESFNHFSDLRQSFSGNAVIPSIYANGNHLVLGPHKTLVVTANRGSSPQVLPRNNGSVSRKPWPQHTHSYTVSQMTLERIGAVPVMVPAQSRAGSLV
Excerpt: (§1) Unbound antibodies were removed by washing the cells three time with FACS buffer. Bound antibodies were detected with a mouse anti-human IgG antibody conjugated with AlexaFluor647.

[13] = biological target: T1, human IGSF11 (VSIG3) on cells; assay: FACS, MDA-MB-231-IGSF11 cells, IgG
Excerpt: as §1

[14] = biological target: T3, IGSF11 ECD fused to murine-Fc; assay: ELISA, IgG; remark: listed apart in the source
murine IGSF11 on cells [15] = biological target: T5, murine IGSF11 on cells; assay: FACS, MC38-IGSF11 cells, IgG
Excerpt: as §1

[16] = biological target: T6, recombinant cynomolgus monkey IGSF11 extracellular domain (ECD) (cynomolgus monkey, UniProt Q5DX21 23-241 (human entry), biotinylated); assay: ELISA, Fab
T6 chain: T2 sequence with P17T, I83V, A185T, S187T
Description: (§2) In order to identify IGSF11-specific binding ABPs, monoclonal Fabs expressed from E. coli were generated from the enriched set of anti-IGFS11 antibody-expressing phage. After bacterial lysis, the Fabs were tested for their binding properties and cross-reactivity profile on recombinant ECD-IGSF11 (human, mouse and cynomolgus monkey) by standard ELISA. Briefly, biotinylated recombinant ECD-IGSF11 from human, mouse, or cynomolgus monkey were immobilized at 2 ug/mL on a streptavidin-coated 384-well Maxisorp plate. The surface was blocked with 2% (w/v) skim milk powder in PBST. After three wash cycles with PBST, a bacterial lysate of each of the anti-IGSF11 Fabs in 2% (w/v) skim milk powder was applied to the immobilized IGSF11 and incubated for 1 h. After removing all unbound Fab by 3 wash cycles with PBST, bound Fab antibodies were detected with a goat anti-human Fab antibody conjugated with horseradish peroxidase. After three wash cycles with PBST the ELISA was developed with TMB substrate.

Streptavidin = biological target: T7, Streptavidin (UniProt P22629 37-163, limits assumed); assay: ELISA, Fab
T7 construct: also called negative antigen; irrelevant antigen
Description: as §2

[17] = biological target: T8, recombinant murine IGSF11 extracellular domain (ECD) (mouse, UniProt P0C673 23-240, biotinylated); assay: ELISA, Fab
T8 construct: also called Mouse IGSF11; murine ECD-IGSF11
T8 sequence: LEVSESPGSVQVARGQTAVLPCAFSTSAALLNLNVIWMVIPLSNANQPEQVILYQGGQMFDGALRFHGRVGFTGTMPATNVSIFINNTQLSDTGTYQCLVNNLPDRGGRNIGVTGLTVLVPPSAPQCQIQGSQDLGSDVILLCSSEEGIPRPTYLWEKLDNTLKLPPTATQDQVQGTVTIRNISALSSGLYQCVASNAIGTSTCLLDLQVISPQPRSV
Description: as §2

[18] = biological target: T2, recombinant human IGSF11 (VSIG3) …; assay: ELISA, Fab
Description: as §2

[19] = biological target: T2, recombinant human IGSF11 (VSIG3) …; assay: BLI, apparent affinity, IgG captured, IGSF11 ECD 100 nM
Excerpt: Briefly, various APBs were loaded on an optical biosensor via a commercially available Capture System (AHC sensors, ForteBio).

[20] = biological target: T4, His-tagged extracellular domain (ECD) …; assay: blocking ELISA: antibody pre-incubated with His-tagged IGSF11 ECD, complexes added to immobilised VSIR-Fc; y axis % remaining IGSF11 binding to VSIR, x axis nM IgG per legend

T7 sequence (P22629 37-163 limits assumed): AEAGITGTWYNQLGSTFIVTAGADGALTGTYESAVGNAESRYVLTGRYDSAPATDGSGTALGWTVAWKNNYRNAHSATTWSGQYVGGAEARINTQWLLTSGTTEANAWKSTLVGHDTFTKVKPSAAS

B1: A-011 (IgG1 format) (antibody, V domains shown)
VH: QVQLVESGGGVVQPGRSLRLSCAASGFTFSSYAMHWVRQAPGKGLEWVAVISYDGSNKYYADSVKGRFTISRDNSKNTLYLQMNSLRAEDTAVYYCAEGGALNYYGMDVWGQGTTVTVSS
VL: SSELTQDPGVSVALGQTVRITCQGDSLRHFYATWYQQKPGQAPILVIYGKNNRPSGIPDRFSGSSSEDTASLTITGAQAEDEADYYCQSRDPRNNHLIFGGGTKLIVL
notes: human IgG1 format
[1]
  EC50: > 50 nM
[2]
  Kd: 10 to 20 nM
[3]
  percentage binding (FACS heat-map): 2.87%
[4]
  percentage binding (FACS heat-map): 2.05%
[5]
  EC50: < 1 nM
[6]
  EC50: < 0.02 nM
[7]
  percentage binding (FACS heat-map): 3.4%
[8]
  percentage binding (FACS heat-map): 4.86%
[9]
  percentage binding (FACS heat-map): 6.95%
[10]
  percentage binding (FACS heat-map): 2.41%
[11]
  Kd: 250 to 500 nM

B2: C-017 (IgG1 format) (antibody, V domains shown)
VH: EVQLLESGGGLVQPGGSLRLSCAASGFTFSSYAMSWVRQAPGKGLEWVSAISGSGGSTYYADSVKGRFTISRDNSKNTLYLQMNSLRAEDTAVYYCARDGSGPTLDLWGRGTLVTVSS
VL: DIQMTQSPSSLSASVGDRVTITCRASQSISSYLNWYQQKPGKAPKLLIYAASSLQSGVPSRFSGSGSGTDFTLTISSLQPEDFATYYCQQHRYIPPWTFGQGTKVEIK
notes: wildtype human IgG1 and kappa or lambda constant regions
Murine IGSF11 on cells [12]
  EC50: 20 to 50 nM
[13]
  EC50: 15 to 25 nM
[14]
  EC50: 1 to 20 nM
Murine IGSF11 on cells [15]
  EC50: 50 to 100 nM

B3: C-019 (Fab format) (Fab, V domains shown)
VH: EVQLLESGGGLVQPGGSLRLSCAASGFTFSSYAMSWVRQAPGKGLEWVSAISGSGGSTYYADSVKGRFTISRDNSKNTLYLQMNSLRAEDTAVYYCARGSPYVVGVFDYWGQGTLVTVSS
VL: B2 VL with H91W, R92Q, Y93H, I94E, W97Y
notes: Fab in E. coli lysate
[16]
  A450: < 1
Streptavidin
  A450: < 0.1
[17]
  A450: < 1
[18]
  A450: < 1

B4: C-007 (IgG1 format) (antibody, V domains shown)
VH: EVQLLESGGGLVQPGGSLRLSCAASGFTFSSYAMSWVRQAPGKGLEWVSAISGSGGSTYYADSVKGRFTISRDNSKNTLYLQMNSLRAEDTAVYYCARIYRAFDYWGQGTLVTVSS
VL: ASVLTQPPSVSAAPGQKVTISCSGSSSNIGNNYVSWYQQLPGTAPKLLIYDNNKRPSGIPDRFSGSKSGTSATLGITGLQAEDEADYYCQLYEEEHSTWVFGGGTKLTVL
notes: as for B2
[19]
  Kd: < 125 nM
Murine IGSF11 on cells [12]
  EC50: 20 to 50 nM
[13]
  EC50: < 10 nM
[14]
  EC50: < 1 nM
Murine IGSF11 on cells [15]
  EC50: < 20 nM

B5: C-004 (Fab format) (Fab, V domains shown)
VH: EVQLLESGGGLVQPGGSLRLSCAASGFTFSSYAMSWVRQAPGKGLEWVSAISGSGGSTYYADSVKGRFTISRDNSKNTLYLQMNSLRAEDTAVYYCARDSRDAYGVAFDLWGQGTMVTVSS
VL: B4 VL with Q90L, L91T, Y92W, E93T, E94G, E95A, H96G, S97R, T98I, W99F
notes: Fab in E. coli lysate
[16]
  A450: < 1
Streptavidin
  A450: < 0.1
[17]
  A450: < 1
[18]
  A450: < 1

B6: C-001 (IgG1 format) (antibody, V domains shown)
VH: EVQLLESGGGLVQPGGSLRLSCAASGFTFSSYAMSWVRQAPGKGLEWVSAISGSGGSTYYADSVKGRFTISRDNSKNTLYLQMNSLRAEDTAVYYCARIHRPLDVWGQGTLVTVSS
VL: B4 VL with Q90G, L91S, Y92W, E93L, H96R, T98Q, W99Y
notes: wildtype human IgG1 and kappa or lambda constant regions; also called ABP C-001
[19]
  Kd: < 75 nM
Murine IGSF11 on cells [12]
  EC50: 20 to 50 nM
[13]
  EC50: < 10 nM
[14]
  EC50: < 1 nM
Murine IGSF11 on cells [15]
  EC50: 50 to 100 nM

B7: B-008 (chain-swapped IgG1) (antibody, V domains shown)
VH: EVQLVESGGGLIQPGGSLRLSCAASGFTVSSNYMSWVRQAPGKGLEWVSVIYSGGSTYYADSVKGRFTISRDNSKNTLYLQMNSLRAEDTAVYYCARGNPYYYGDLQVNFDYWGQGTLVTVSS
VL: QAVVTQEPSLTVSPGGTVTPTCGSSTGAVTSGNLPNWFQQKPGQAPRALIYSTSNKHSWTPARISGSLLGGKAALTLSGVQPEDEAEYYCLLYYGGAWVFGGGTKLTVL
notes: human IgG1 format; also called B8
[20]
  IC50 (read off the curve): ~4 nM

B8: C-013 (Fab format) (Fab, V domains shown)
VH: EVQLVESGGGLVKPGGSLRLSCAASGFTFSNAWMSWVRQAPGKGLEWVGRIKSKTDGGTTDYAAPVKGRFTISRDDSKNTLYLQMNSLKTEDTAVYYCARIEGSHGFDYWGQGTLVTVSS
VL: SYELTQPPSVSVSPGQTASITCSGDKLGDKYASWYQQKPGQSPVLVIYQDSKRPSGIPERFSGSNSGNTATLTISGTQAEDEADYYCASYLHTPKQFVFGGGTKLTVL
notes: Fab in E. coli lysate
Streptavidin
  A450: < 0.1
[18]
  A450: < 1

B9: C-005 (IgG1 format) (antibody, V domains shown)
VH: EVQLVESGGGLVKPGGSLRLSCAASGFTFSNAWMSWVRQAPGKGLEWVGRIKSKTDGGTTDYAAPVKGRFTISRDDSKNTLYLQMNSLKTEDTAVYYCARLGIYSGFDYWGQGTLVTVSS
VL: B8 VL with A88H, L91T, H92G, T93K, K95S, F97V
notes: as for B2
[19]
  Kd: < 15 nM
Murine IGSF11 on cells [12]
  EC50: < 20 nM
[13]
  EC50: < 10 nM
[14]
  EC50: < 1 nM
Murine IGSF11 on cells [15]
  EC50: < 20 nM

B10: C-018 (Fab format) (Fab, V domains shown)
VH: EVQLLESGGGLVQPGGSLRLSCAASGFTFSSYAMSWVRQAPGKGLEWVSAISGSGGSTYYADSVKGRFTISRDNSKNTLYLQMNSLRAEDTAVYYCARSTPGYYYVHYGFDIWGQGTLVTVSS
VL: B8 VL with A88Q, S89A, Y90W, L91S, H92T, T93S, P94T, K95H, Q96S, F97W
notes: Fab in E. coli lysate
[16]
  A450: < 1
Streptavidin
  A450: < 0.1
[17]
  A450: < 1
[18]
  A450: < 1

B11: C-027 (Fab format) (Fab, V domains shown)
VH: QVQLVQSGAEVKKPGSSVKVSCKASGGTFSSYAISWVRQAPGQGLEWMGGIIPIFGTANYAQKFQGRVTITADESTSTAYMELSSLRSEDTAVYYCARENIPSYYDSSGRQDAFDIWGQGTMVTVSS
VL: B8 VL with A88Q, T93K, P94S, K95H, Q96G, F97A
notes: Fab in E. coli lysate
[16]
  A450: < 1
Streptavidin
  A450: < 0.1
[18]
  A450: < 1
